Measured values: PMC8217473 (2021)
Like-named read-outs stand apart in the source and are kept apart here.

B1: 3N39 mutant sACE2-His (domain or fragment)
chain: QSTIEEQVETFLDNFNHKAEDLFYQSSLASWNYNTNITEENVQNMNIAGDKWSAFLKEQSTFAQMYPLQEIQHLTVKLQLQALQQNGSSVLSEDKSKRLNTILNTMSTIYSTGKVCNPDNPQECLLLEPGLNEIMANSLDYNERLWAWESWRSEVGKQLRPLYEEYVVLKNEMARANHYEDYGDYWRGDYEVNGVDGYDYSRGQLIEDVEHTFEEIKPLYEHLHAYVRAKLMNAYPSYISPIGCLPAHLLGDMWGRFWTNLYSLTVPFGQKPNIDVTDAMVDQAWDAQRIFKEAEKFFVSVGLPNMTQGFWENSMLTDPGNVQKAVCHPTAWDLGKGDFRILMCTKVTMDDFLTAHHEMGHIQYDMAYAAQPFLLRNGANEGFHEAVGEIMSLSAATPKHLKSIGLLSPDFQEDNETEINFLLKQALTIVGTLPFTYMLEKWRWMVFKGEIPKDQWMKKWWEMKREIVGVVEPVPHDETYCDPASLFHVSNDYSFIRYYTRTLYQFQFQEALCQAAKHEGPLHKCDISNSTEAGQKLFNMLRLGKSEPWTLALENVVGAKNMNVRPLLNYFEPLFTWLKDQNKNSFVGWSTDWSPYAD
B2: 3N39v2 mutant sACE2-His (domain or fragment)
chain: QSTIEEQVKTFLDNFNHKAEDLFYQSSLASWNYNTNITEENVQNMNNAGDKWSAFLKEQSTFAQMYPLQEIQNLTVKLQLQALQQNGSSVLSEDKSKRLNTILNTMSTIYSTGKVCNPDNPQECLLLEPGLNEIMANSLDYNERLWAWESWRSEVGKQLRPLYEEYVVLKNEMARANHYEDYGDYWRGDYEVNGVDGYDYSRGQLIEDVEHTFEEIKPLYEHLHAYVRAKLMNAYPSYISPIGCLPAHLLGDMWGRFWTNLYSLTVPFGQKPNIDVTDAMVDQAWDAQRIFKEAEKFFVSVGLPNMTQGFWENSMLTDPGNVQKAVCHPTAWDLGKGDFRILMCTKVTMDDFLTAHHEMGHIQYDMAYAAQPFLLRNGANEGFHEAVGEIMSLSAATPKHLKSIGLLSPDFQEDNETEINFLLKQALTIVGTLPFTYMLEKWRWMVFKGEIPKDQWMKKWWEMKREIVGVVEPVPHDETYCDPASLFHVSNDYSFIRYYTRTLYQFQFQEALCQAAKHEGPLHKCDISNSTEAGQKLFNMLRLGKSEPWTLALENVVGAKNMNVRPLLNYFEPLFTWLKDQNKNSFVGWSTDWSPYAD

Columns and labels:
[1] = biological target: T1, RBD-Fc (receptor binding domain of SARS-CoV-2 spike fused to Fc) (SARS-CoV-2, UniProt P0DTC2); experiment: SPR
[2] = biological target: T1, RBD-Fc (receptor binding domain of …); experiment: SPR; remark: listed apart in the source

| Binder | Kd [1] | Kd [2] |
| --- | --- | --- |
| B1 | 0.29 nM | 0.32 nM |
| B2 | – | 0.54 nM |
